{"source": "paper PMC8478808", "about": "(Stroke, 2021)", "binders": {"B1": {"name": "biotinylated recombinant mouse CD200-Fc Chimera (carrier-free) (Fc fusion, UniProt O54901 31-232, looked up)", "chain": "QVEVVTQDERKALHTTASLRCSLKTSQEPLIVTWQKKKAVSPENMVTYSKTHGVVIQPAYKDRINVTELGLWNSSITFWNTTLEDEGCYMCLFNTFGSQKVSGTACLTLYVQPIVHLHYNYFEDHLNITCSATARPAPAISWKGTGTGIENSTESHFHSNGTTSVTSILRVKDPKTQVGKEVICQVLYLGNVIDYKQSLDKG", "modifications": "biotin (biotinylated; site not stated)"}}, "target": "T1, recombinant mouse CD200R1 Fc chimera (mouse, UniProt Q9ES57 26-238)", "T1 sequence (looked up)": "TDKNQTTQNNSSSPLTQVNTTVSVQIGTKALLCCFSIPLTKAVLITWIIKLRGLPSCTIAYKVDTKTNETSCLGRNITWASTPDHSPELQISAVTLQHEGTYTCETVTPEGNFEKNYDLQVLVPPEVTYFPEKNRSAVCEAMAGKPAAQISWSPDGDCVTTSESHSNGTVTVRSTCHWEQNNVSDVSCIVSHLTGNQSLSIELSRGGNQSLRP", "experiment": "ELISA"}
{"binder": "B1", "values": [{"measurement": "binding result", "result": "binds"}]}
